# In patent US20160296648A1:
# Tests used:
# CD22 (human) [1] = biological target: CD22 (human) (UniProt P20273); assay: flow cytometry on bone marrow blasts at inclusion
# CD22 (human) [2] = biological target: CD22 (human) (UniProt P20273); assay: flow cytometry, BM blasts at day 15 post-RAIT (FIG. 1A)
# CD22 (human) [3] = biological target: CD22 (human) (UniProt P20273); assay: flow cytometry on residual blasts of four non-responders after RAIT
# CD22 (human) [4] = biological target: CD22 (human) (UniProt P20273); assay: flow cytometry, normal BM B cells at day 180 post-RAIT (FIG. 1B), epratuzumab gone from the surface
# CD22 (human) [5] = biological target: CD22 (human) (UniProt P20273); assay: flow cytometry on peripheral blood blasts at inclusion
# CD22 (human) [6] = biological target: CD22 (human) (UniProt P20273); assay: flow cytometry on BM blasts of a patient who had received epratuzumab (epratuzumab on the cells)
# CD22 (human) [7] = biological target: CD22 (human) (UniProt P20273); assay: flow cytometry on residual blasts of three non-responders after RAIT (epratuzumab on the cells)
# CD22 (human) [8] = biological target: CD22 (human) (UniProt P20273); assay: flow cytometry, normal BM B cells at day 90 post-RAIT (FIG. 1B)
# CD22 (human) [9] = biological target: CD22 (human) (UniProt P20273); assay: flow cytometry on residual blasts of one non-responder after RAIT
# CD22 (human) [10] = biological target: CD22 (human) (UniProt P20273); assay: flow cytometry on blasts after elimination of epratuzumab from the surface
substance,measurement,setting,value
"SHCL-1 (anti-CD22 antibody clone, PE or PerCp-Cy5.5 conjugated, BD Biosciences)",median % of CD22-SHCL-1 expression (bone marrow blasts),CD22 (human) [1],100%
same,% CD22 SHCL-1 blast expression,CD22 (human) [2],100%
same,% positivity of residual blasts,CD22 (human) [3],100%
same,% positive (normal BM B cells),CD22 (human) [4],100%
same,median % of CD22-SHCL-1 expression (peripheral blasts),CD22 (human) [5],100%
same,% of SHCL-1+ blasts,CD22 (human) [6],100%
same,% positivity of residual blasts,CD22 (human) [7],100%
same,% CD22 SHCL-1 expression (normal BM B cells),CD22 (human) [8],100%
same,% positivity of residual blasts,CD22 (human) [9],84%
same,% labeling of blasts,CD22 (human) [10],100%
